The nature of experiment [1]: pH-rate profile for the hydrolysis of phosphatidylcholine. In kind it is biochemical, human. As to conditions: Q-Sepharose purified hGIII sPLA2. The text has this: (§1) FIG. 4 presents the enzymatic properties of hGIII sPLA2. A, Ca^2+ dependency of the hydrolysis of 1 -palmitoyl-2-(10-pyrenedecanoyl)-sn-glycerol-3- phosphomethanol vesicles by Q-sepharose purified hGIII sPLA2. B, pH dependency of the hydrolysis of phosphatidylcholne vesicles by Q-Sepharose purified gGIII sPLA2. Studies to measure the initial rate of hydrolysis of small unilamellar vesicles of phosphatidylglycerol (1-palmitoyl-2-([9,10[^3H])-palmitoyl-sn-glycero-3-phosphoglycerol in 1-palmitoyl-2-oleoyl-sn-glycero-3-phosphoglycerol at 50 Ci/mol) and phosphatidylcholine (1-palmitoyl-2-([9,10[^3H])-palmitoyl-sn-glycero-3-phosphocholine, 50 Ci/mol) were carried as described (8) using Q-Sepharose purified hGIII sPLA2. Initial rates were calculated from 3 time points in the linear portion of the product versus time curve. pH-rate profiles for the hydrolysis of phosphatidylcholine were obtained as described (8). The Ca^2+ dependency of phospholipid hydrolysis was carried out with the fluorimetric assay (described above) with 10 μM EGTA (no Ca^2+) or with CaCl2 in excess of EGTA to give 10-650 μM Ca^2+.

Experiment [2] is described as follows: Initial rate of hydrolysis of small unilamellar vesicles of phosphatidylglycerol and phosphatidylcholine. As to conditions: Q-Sepharose purified hGIII sPLA2; data not shown. In kind it is biochemical, human. On the procedure:
as §1, with “Studies” for “FIG. 4 presents the enzymatic properties of hGIII sPLA2. A, Ca^2+ dependency of the hydrolysis of 1 -palmitoyl-2-(10-pyrenedecanoyl)-sn-glycerol-3- phosphomethanol vesicles by Q-sepharose purified hGIII sPLA2. B, pH dependency of the hydrolysis of phosphatidylcholne vesicles by Q-Sepharose purified gGIII sPLA2. Studies”

B1: hGIII sPLA2: novel human secreted group III phospholipase A2, SEQ ID No. 2, expressed recombinantly in COS cells and partially purified on Q-Sepharose (protein, listed as Homo sapiens)
chain: MGVQAGLFGMLGFLGVALGGSPALRWYRTSCHLTKAVPGNPLGYLSFLAKDAQGLALIHARWDAHRRLQACSWEDEPELTAAYGALCAHETAWGSFIHTPGPELQRALATLQSQWEACRALEESPAGARKKRAAGQSGVPGGGHQREKRGWTMPGTLWCGVGDSAGNSSELGVFQGPDLCCREHDRCPQNISPLQYNYGIRNYRFHTISHCDCDTRFQQCLQNQHDSISDIVGVAFFNVLEIPCFVLEEQEACVAWYWWGGCRMYGTVPLARLQPRTFYNASWSSRATSPTPSSRSPAPPKPRQKQHLRKGPPHQKGSKRPSKANTTALQDPMVSPRLDVAPTGLQGPQGGLKPQGARWVCRSFRRHLDQCEHQIGPREIEFQLLNSAQEPLFHCNCTRRLARFLRLHSPPEVTNMLWELLGTTCFKLAPPLDCVEGKNCSRDPRAIRVSARHLRRLQQRRHQLQDKGTDERQPWPSEPLRGPMSFYNQCLQLTQAARRPDRQQKSWSQ
With B1, the “pH of optimal activity on phosphatidylcholine vesicles” value in experiment [1] is recorded as 8 pH. In addition, the “Activity on anionic phosphatidylglycerol vesicles versus zwitterionic phosphatidylcholine vesicles, based on initial velocities” value in experiment [2] is recorded as 11 fold.

The values are drawn from US6875599B2, “Mammalian secreted group III phospholipase A2” (Centre National de la Recherche Scientifique - CNRS, priority 2000, dated 2005).
